Laboratory results reported in patent publication US20040071656A1, “Modulation of heat-shock-protein-based immunotherapies” (priority 2001, published 2004).

Molecular target: T1, exoplasmic domain of human CD40 (GST-CD40) (Homo sapiens, UniProt P25942)
T1 construct: The cDNA for the exoplasmic domain of CD40 (amino acids 20-212); made in house; host or cells: E. coli, pGEX-2T
Assay: GST-CD40 binding and competition assay with recombinant Hsp70 and its domains
Description: For binding assays with recombinant Hsp70 and its domains, 3 μM His6-Hsp70 or its His6-tagged domains were incubated with 2 mM ATP, 2 mM ADP or 2 mM ADP and 28 μM peptide C in 50 μl binding buffer (10 mM MOPS/KOH, pH 7.2, 150 mM KCl and 3 mM MgCl2) for 30 min at 37° C. In competition experiments binding was probed with either a 10-fold excess of Hsp70, the two domains, or DnaK, or with a 5-fold excess of Hip or Bag 1 for 10 min at 0° C. To this end, Hsp70, N70, C70 and DnaK were preincubated with ADP, ATP and peptide C as described above. For comparison of CD40 binding of Hsp70 and its N-terminal domain, Hsp70 was preincubated in the presence or absence (mock treatment) of a 30-fold molar excess of peptide C. 3 μM of GST or GST-CD40 was added to the samples and incubated for 20 min at 16° C. For titration of peptide C, 5- to 50-fold excess of peptide C (15-150 μM) was added to the preincubation of Hsp70. Thereafter the samples were combined with 20 μl of 1% BSA-treated Glutathione Sepharose 4 Fast Flow and incubated in the presence of 2 mM DTT for another 20 min at 16° C. Unbound proteins were removed by washing the beads three times with 1 ml PBS, and immobilized proteins eluted with 30 μl elution buffer for 20 min at 22° C. 10 μl of the eluates were subjected to SDS-PAGE and analyzed by immunoblotting using a Penta-His-antibody (Quiagen). Blot signals were quantified by Quantity One (Biorad).
Details for FIG. 3. Binding of Hsp70 to CD40 is direct and depends on ADP. A. Hela-cell lysates were incubated with GST (control), or GST-CD40 in the amounts indicated. Thereafter samples were affinity purified on glutathione-Sepharose as outlined in Experimental Procedures, subjected to SDS-PAGE and analyzed by immunoblotting with antibodies directed against Hsc70 and Hsp70 (upper lanes), and against Hsp90 (lower lanes). B. Human recombinant His6-tagged Hsp70 was incubated with ATP, ADP, or an excess of peptide C, followed by addition of GST-CD40 or GST alone. After affinity purification samples were analyzed by immunoblotting as described in A, using antibodies directed against the His6-tag. C. Recombinant human His6-tagged Hsp70 was incubated with peptide C, either in the presence or absence of ADP. The reactions were then incubated with ANA1-cell lysates as described in Experimental Procedures. Protein bound to Hsp70 was analyzed by affinity purification on Ni-NTA-agarose and immunoblotting with antibodies directed against CD40.
Details for FIG. 4. Hsp70 binding to CD40 is mediated by the N-terminal ATPase domain and is competed by Hip. A. Human His6-tagged Hsp70, its N- or C-terminal domains, or recombinant bacterial DnaK was incubated either with GST-CD40, or with GST. B. Recombinant DnaK was incubated with ATP, ADP, or an excess of peptide C, followed by addition of GST-CD40 or GST alone. C. His6-tagged N-terminal domain of Hsp70 (N70) was incubated in the presence of ATP or ADP, followed by incubation with a 10-fold molar excess of Hsp70 in the presence of ADP or ATP. D: Recombinant human His6-tagged Hsp70 protein was incubated with a 5-fold molar excess of either recombinant Hip protein or Bag-1, and with GST-CD40 or GST as a control. Bound protein was analyzed after affinity purification on glutathione-Sepharose by immunoblotting with an antibody directed against the N-terminal His6-tags or with an antibody directed against DnaK.
Details for FIG. 5. Peptide substrate stimulates Hsp70 binding to CD40. A. His6-tagged Hsp70 was incubated with increasing concentrations of peptide C as indicated in the Figure, and binding to GST-CD40 analyzed by immunoblotting with antibodies directed against the His6-tag. The lower panel is a quantitation of the data. B. Equivalent concentrations (3 μM) of His6-tagged Hsp70 (in the presence of a 30-fold molar excess of peptide C) or His6-tagged N70 was incubated with GST-CD40, and bound protein was analyzed as described above.

T1 sequence (P25942 20-212): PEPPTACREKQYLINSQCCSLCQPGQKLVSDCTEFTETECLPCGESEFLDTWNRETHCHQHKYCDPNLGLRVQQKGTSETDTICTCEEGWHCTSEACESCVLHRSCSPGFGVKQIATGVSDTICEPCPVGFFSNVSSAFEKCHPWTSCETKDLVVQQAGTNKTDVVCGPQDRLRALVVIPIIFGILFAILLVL

Hsp70 binding to CD40 in the presence of ADP (3 μM His6-Hsp70, 2 mM ADP)	Hsp70 binding to CD40 in the presence of ATP (3 μM His6-Hsp70, 2 mM ATP)	binding efficiency to CD40, substrate-saturated Hsp70 versus N-terminal domain (3 μM each, ADP states, Hsp70 with 30-fold molar excess of peptide C)	competition for the binding of full-length Hsp70 to CD40 (ADP, 5-fold molar excess of competitor)	Substance	direct binding to CD40 (GST-CD40 pull down), nucleotide dependence (ADP versus ATP)
only seen in the presence of ADP	barely detectable			Hsp70: Recombinant human heat shock protein 70, expressed and purified as His-tagged protein	
		bound to CD40 with similar efficiencies	efficiently competed	N70: Recombinant N-terminal ATPase domain of human Hsp70, residues 5-381 (SEQ ID NO: 1)	bound to CD40 in the presence of ADP but not ATP
